Source: article PMC10952462, “Commentary on “The road to reliable peptide assays is paved with good guidelines”” (Clinical Endocrinology, 2023)

Tests used:
[1] = Stability of PYY1-36 and PYY3-36 in EDTA and lithium heparin plasma (LC-MS/MS assay validation); format: in vitro ADME, human; details: for degradation in plasma at 4°C / degradation in plasma at room temperature / mean percentage difference in concentration, overall and between all tested sample sets: EDTA or LH plasma; for degradation in plasma at 4°C: 3 h time-point at 4°C; for degradation in plasma at 4°C / degradation in plasma at room temperature: with or without inhibitors (DPP4 inhibitor and Aprotinin), spiked samples and healthy volunteer samples, triplicate QCs (low and high); for degradation in plasma at room temperature: 3 h time-point at room temperature (19°C); for mean percentage difference in concentration, overall and between all tested sample sets: presence versus absence of inhibitors, 3 h at 19°C or 4°C, mean of injections of triplicate QCs (low and high); for differences in concentrations with only DPP4 inhibitor and Aprotinin present: spiked into plasma EDTA and LH from three different volunteers, inhibitor mix of DPP4 inhibitor and Aprotinin
Method: We have verified stability of PYY1 –36 and PYY3 –36 at preanalytical, analytical and post‐analytical stages of the assay. At preanalytical stage the whole blood is collected in prechilled lithium heparin (LH) or ethylenediaminetetraacetic acid (EDTA) tubes and containing evaluated in‐house inhibitors (DPP4 inhibitor and Aprotinin). The sample is centrifuged immediately at 4°C and flash‐frozen on dry ice or transferred immediately to a −80°C freezer. The samples are kept at −80°C until being thawed once only for analysis.
We deemed our protease inhibitors sufficient for maintaining stability of PYY1 –36 and PYY3 –36 and inhibiting peptide degradation.
(§1) Maurer et al. have quoted Toräng et al.'s study on PYY's major cleaving sites but disregarded the outcome from their study of the inhibitory effects of EDTA on metalloendoproteases, neuroendopeptidase (NEP) and Meprin β.[3] […] We have studied the stability of both PYY species with our inhibitor mix containing DPP4 inhibitor and Aprotinin, where we spiked PYY1 –36 and PYY3 –36 into plasma EDTA and LH from three different volunteers.
Furthermore, we have verified the stability of both species of PYY in both EDTA and LH plasma under the following conditions: (1) freezing and thawing up to a second cycle; (2) incubation at 4°C for up to 4 h; (3) long‐term storage (6 months) at −80°C; (4) postextraction, during storage in the autosampler at 4°C. We have verified the stability of our stock and working stock solutions for up to 7 months, stored at […]. We would state that it is a matter of standard operating procedure that we store these solutions at −80°C and discard these at the end of the day of the run after thawing, affording a safety margin. Last, our assay has been validated both with plasma‐based calibrants and QCs, and cross‐validated in a surrogate matrix (20BMA). We also validated matrix effects (ME) in spiked plasma EDTA and plasma LH. Mean percentage ME for PYY1 –36 was 100.7% and for PYY3 –36, 111% in plasma LH. EDTA ME results were reported previously.[2]

[2] = collection tubes containing EDTA; ref 3 (Toräng et al.); cited from earlier work
Excerpt: as §1

For peptide YY1 –36 [PYY1 –36], the “degradation in plasma at 4°C” value [1] was “no degradation”, the “degradation in plasma at room temperature” value [1] was “no degradation” and the “mean percentage difference in concentration, overall and between all tested sample sets” value [1] was ≤ 10%. For the same substance, the “differences in concentrations with only DPP4 inhibitor and Aprotinin present” value [1] was “did not detect any significant differences”.
For peptide YY3‐36 [PYY3 –36], the “degradation in plasma at 4°C” value [1] was “no degradation”, the “degradation in plasma at room temperature” value [1] was “no degradation” and the “mean percentage difference in concentration, overall and between all tested sample sets” value [1] was ≤ 10%. For the same substance, the “differences in concentrations with only DPP4 inhibitor and Aprotinin present” value [1] was “did not detect any significant differences”.
For “PYY: peptide YY, species not specified, as studied by Toräng et al.”, the “risk of PYY degradation in collected blood” value [2] is given as “small”.
